Patent US20210317186A1 (BRIGHAM AND WOMEN S HOSPITAL, published 2021)
Residue numbers refer to the chain shown, from its start. One block for each binder: values may come before it.

Legend:
[1] = target: the molecule itself; assay: size exclusion chromatography (Superdex S200) of His-tagged CD5L from 293E supernatant
Method: Recombinant protein CD5L monomer and homodimer was purified from the supernatant of 293E cells transfected with a CD5L expression vector. Recombinant mCD5L:p40 was recovered from the supernatant of 293E cells transfected with the CD5L:p40 expression vector. After harvesting transfected 293E cells by centrifugation, the protein was affinity purified from the supernatant using Ni Sepharose 6 Fast Flow resin (GE Healthcare). After binding the protein to resin, the resin was washed with 20 mM Tris, 0.3M NaCl, pH 8.0 and the protein eluted using 20 mM Tris, 0.3M NaCl, 0.4M Imidazole, pH 8.0. The protein was further polished by a […] sizing exclusion column (GE Healthcare) in buffer 10 mM NaHPO4, 0.15M NaCl, pH 7.2.

[2] = target: T1, endogenous CD5L (mouse; in serum or secreted by bone marrow derived dendritic cells) (mouse, UniProt Q9QWK4 22-352); assay: sandwich ELISA on mouse serum, capture with anti-IL-12 p40, detection with anti-CD5L
T1 construct: also called natural CD5L; AIM
T1 sequence (looked up): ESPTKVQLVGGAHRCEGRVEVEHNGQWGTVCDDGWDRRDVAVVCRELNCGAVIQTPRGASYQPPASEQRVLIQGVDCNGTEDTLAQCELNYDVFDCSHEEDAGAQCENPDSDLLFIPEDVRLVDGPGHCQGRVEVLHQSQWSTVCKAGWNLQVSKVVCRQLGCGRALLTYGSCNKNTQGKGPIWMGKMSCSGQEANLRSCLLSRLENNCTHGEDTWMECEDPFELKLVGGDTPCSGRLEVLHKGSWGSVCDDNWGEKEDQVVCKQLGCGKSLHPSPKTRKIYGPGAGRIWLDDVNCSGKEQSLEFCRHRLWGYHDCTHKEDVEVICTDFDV
Method: Serum was collected kinetically from wildtype and Cd5l^{-/-} mice with DSS-induced colitis (2% DSS in drinking water for 6 days followed by 7 days of normal water) and the level of CD5L:p40 was measured using an ELISA assay. In the ELISA assay anti-IL-12 p40 was used to capture the heterodimer and enzyme linked anti-CD5L was used to detect the heterodimer.
Preliminary screens were conducted to determine what signals could induce CD5L homodimer and CD5L:p40 heterodimer. In particular, bone marrow derived dendritic cells were stimulated with TLR ligands for 24 hours and the supernatant was analyzed for CD5L:p40 secretion by ELISA.

B1: recombinant CD5L with His tag at C-terminus (mouse, mCD5L) (ligand)
chain: T1 sequence (looked up) with N176S
notes: Made by Biolegend in 293E cells; The transfection gave a monomer and a homodimer fraction on size exclusion; also called soluble CD5L; sCD5L; not shown: His tag at C-terminus
binding result [1]: binds

binding result [2]: binds
B2: endogenous p40 (IL-12 p40, Il12b; mouse) (ligand, UniProt P43432 23-335, looked up)
chain: MWELEKDVYVVEVDWTPDAPGETVNLTCDTPEEDDITWTSDQRHGVIGSGKTLTITVKEFLDAGQYTCHKGGETLSHSHLLLHKKENGIWSTEILKNFKNKTFLKCEAPNYSGRFTCSWLVQRNMDLKFNIKSSSSSPDSRAVTCGMASLSAEKVTLDQRDYEKYSVSCQEDVTCPTAEETLPIELALEARQQNKYENYSTSFFIRDIIKPDPPKNLQMKPLKNSQVEVSWEYPDSWSTPHSYFSLKFFVRIQRKKEKMKETEEGCNQKGAFLVEKTSTEVQCKGGNVCVQAQDRYYNSSCSKWACVPCRVRS
notes: also called interleukin 12B
